# Results: patent US8895526B2, “Identification of RNAI targets and use of RNAI for rational therapy of chemotherapy-resistant leukemia and other cancers” (Cold Spring Harbor Laboratory, priority 2009, dated 2014)
# B1: Gart.2470: shRNA, SEQ ID NO: 126 (nucleic acid)
# chain: TGCTGTTGACAGTGAGCGCAAGAATCTGATTGAAACCATATAGTGAAGCCACAGATGTATATGGTTTCAATCAGATTCTTATGCCTACTGCCTCGGA
# B2: Pctk1.948: shRNA, SEQ ID NO: 161 (nucleic acid)
# chain: TGCTGTTGACAGTGAGCGCCCGGGAAGTATCCCTGCTTAATAGTGAAGCCACAGATGTATTAAGCAGGGATACTTCCCGGATGCCTACTGCCTCGGA
# B3: Slc22a4.2223: shRNA, SEQ ID NO: 181 (nucleic acid)
# chain: TGCTGTTGACAGTGAGCGCAAACGTATAAATGCTATCCAATAGTGAAGCCACAGATGTATTGGATAGCATTTATACGTTTATGCCTACTGCCTCGGA
# B4: Adam23.5211: shRNA, SEQ ID NO: 89 (nucleic acid)
# chain: TGCTGTTGACAGTGAGCGCTACGACCACGTCAGTTACAAATAGTGAAGCCACAGATGTATTTGTAACTGACGTGGTCGTATTGCCTACTGCCTCGGA
# B5: Pygl.1463: shRNA, SEQ ID NO: 171 (nucleic acid)
# chain: TGCTGTTGACAGTGAGCGCACCAGACAAGTTCCAGAATAATAGTGAAGCCACAGATGTATTATTCTGGAACTTGTCTGGTTTGCCTACTGCCTCGGA
# B6: Fgd4.821: shRNA, SEQ ID NO: 119 (nucleic acid)
# chain: TGCTGTTGACAGTGAGCGAAAGGAGACTAATGAACAGAAATAGTGAAGCCACAGATGTATTTCTGTTCATTAGTCTCCTTCTGCCTACTGCCTCGGA
# B7: Cerk.4466: shRNA, SEQ ID NO: 108 (nucleic acid)
# chain: TGCTGTTGACAGTGAGCGCCTGGTATATTTGAGAAGACAATAGTGAAGCCACAGATGTATTGTCTTCTCAAATATACCAGATGCCTACTGCCTCGGA
# B8: Mef2c.1872: shRNA, SEQ ID NO: 141 (nucleic acid)
# chain: TGCTGTTGACAGTGAGCGCTGCCTCAGTGATACAGTATAATAGTGAAGCCACAGATGTATTATACTGTATCACTGAGGCAATGCCTACTGCCTCGGA
# B9: Cacna1f.3314: shRNA, SEQ ID NO: 99 (nucleic acid)
# chain: TGCTGTTGACAGTGAGCGACTGGCCTGCGCTACTATACAATAGTGAAGCCACAGATGTATTGTATAGTAGCGCAGGCCAGCTGCCTACTGCCTCGGA
# B10: Thyn1.315: shRNA, SEQ ID NO: 186 (nucleic acid)
# chain: TGCTGTTGACAGTGAGCGCAAGCAACTACTGGCTGATGAATAGTGAAGCCACAGATGTATTCATCAGCCAGTAGTTGCTTATGCCTACTGCCTCGGA
# B11: Cd6.520: shRNA, SEQ ID NO: 102 (nucleic acid)
# chain: TGCTGTTGACAGTGAGCGAGAGCCACTTCTGGGAACACAATAGTGAAGCCACAGATGTATTGTGTTCCCAGAAGTGGCTCCTGCCTACTGCCTCGGA
# B12: Ap1s2.2744: shRNA, SEQ ID NO: 90 (nucleic acid)
# chain: TGCTGTTGACAGTGAGCGACAGGAGCAAGATGAGTTACTATAGTGAAGCCACAGATGTATAGTAACTCATCTTGCTCCTGCTGCCTACTGCCTCGGA
# B13: Fn3k.298: shRNA, SEQ ID NO: 122 (nucleic acid)
# chain: TGCTGTTGACAGTGAGCGAAAGAGCCTTAGCAGTCAGGCATAGTGAAGCCACAGATGTATGCCTGACTGCTAAGGCTCTTCTGCCTACTGCCTCGGA
# B14: Fn1.4143: shRNA, SEQ ID NO: 121 (nucleic acid)
# chain: TGCTGTTGACAGTGAGCGCCAGTAGGATACTACACAGTTATAGTGAAGCCACAGATGTATAACTGTGTAGTATCCTACTGATGCCTACTGCCTCGGA
# B15: Tnfsf12.1204: shRNA, SEQ ID NO: 187 (nucleic acid)
# chain: TGCTGTTGACAGTGAGCGCAATGGATATTAAAGAGAATAATAGTGAAGCCACAGATGTATTATTCTCTTTAATATCCATTTTGCCTACTGCCTCGGA
# B16: Cx3cr1.1223: shRNA, SEQ ID NO: 111 (nucleic acid)
# chain: TGCTGTTGACAGTGAGCGACTGCATCTTATGTGCAAGAAATAGTGAAGCCACAGATGTATTTCTTGCACATAAGATGCAGGTGCCTACTGCCTCGGA
# B17: Gas1.2159: shRNA, SEQ ID NO: 128 (nucleic acid)
# chain: TGCTGTTGACAGTGAGCGACCCGAAATTACAACTGCATTATAGTGAAGCCACAGATGTATAATGCAGTTGTAATTTCGGGGTGCCTACTGCCTCGGA
# B18: Slc12a5.3582: shRNA, SEQ ID NO: 179 (nucleic acid)
# chain: TGCTGTTGACAGTGAGCGAAACGAGGTCATCGTGAATAAATAGTGAAGCCACAGATGTATTTATTCACGATGACCTCGTTCTGCCTACTGCCTCGGA
# B19: Cpd.1693: shRNA, SEQ ID NO: 109 (nucleic acid)
# chain: TGCTGTTGACAGTGAGCGCACCAGGTGAACCAGAATTTAATAGTGAAGCCACAGATGTATTAAATTCTGGTTCACCTGGTTTGCCTACTGCCTCGGA
# B20: L1cam.5255: shRNA, SEQ ID NO: 137 (nucleic acid)
# chain: TGCTGTTGACAGTGAGCGCCAGAATTATAACAGGCAAATATAGTGAAGCCACAGATGTATATTTGCCTGTTATAATTCTGATGCCTACTGCCTCGGA
# B21: Arf3.1357: shRNA, SEQ ID NO: 91 (nucleic acid)
# chain: TGCTGTTGACAGTGAGCGACCCTTCTGTGTTGGTGAGATATAGTGAAGCCACAGATGTATATCTCACCAACACAGAAGGGCTGCCTACTGCCTCGGA
# B22: Dsp.6155: shRNA, SEQ ID NO: 114 (nucleic acid)
# chain: TGCTGTTGACAGTGAGCGCCAGGAAGTTCTTCGATCAATATAGTGAAGCCACAGATGTATATTGATCGAAGAACTTCCTGTTGCCTACTGCCTCGGA
# B23: Fosb.1165: shRNA, SEQ ID NO: 123 (nucleic acid)
# chain: TGCTGTTGACAGTGAGCGCCAGGCGGAAACTGATCAGCTTTAGTGAAGCCACAGATGTAAAGCTGATCAGTTTCCGCCTGATGCCTACTGCCTCGGA
# B24: Pitpnm1.561: shRNA, SEQ ID NO: 165 (nucleic acid)
# chain: TGCTGTTGACAGTGAGCGCCAGGATGCTTATCAAGGAGTATAGTGAAGCCACAGATGTATACTCCTTGATAAGCATCCTGATGCCTACTGCCTCGGA
# Tested on: tet-on competent MLL/AF9+Nras AML
# Assay: Pooled negative selection RNAi screening (deep sequencing)
# Assay type: cell-based, mouse
# Settings: deep sequencing reads, On Dox compared to T0
# Source text: (§1) In addition to the analysis of single shRNAs for inhibitory effects in vitro and in vivo, the combination of tet-on competent cancer models and tet-regulatable shRNA expression vectors allowing for monitoring shRNA expression through fluorescent and other reporter genes (e.g. TRMPV and derivates) facilitates pooled shRNA negative selection screening (FIG. 37). In such approaches a pool of over 1,000 shRNAs are retrovirally transduced into tet-on competent cancer models (here MLL/AF9+Nras AML) and selected for shRNA containing cells by either drug selection (e.g. G418) or fluorescence-activated cell sorting (FACS). Selected cell populations harboring a library of shRNAs then can be cultured in the absence or presence of doxycyline (off dox and on dox, respectively) or injected into syngeneic recipient mice that are either treated with doxycyline or left untreated.
# (§2) The representation of each shRNA within the pool can be effectively assessed by deep sequencing of shRNA cassettes in a given cell population. For this, genomic DNA is extracted from leukemia cells containing the shRNA pool, and the shRNA guide or passenger strand (21-22 target gene specific nucleotides of the shRNA) by PCR using primers specific for common sequences flanking the gene specific part of the shRNA (e.g. miR30 19 nt loop and miR30 common 3′ sequence). The primers also contain 5′-adapters required for deep sequencing (e.g. for Illumina/Solexa sequencing primers are p5+mir3: 5′-[…]-3′ (SEQ ID NO: 215) and p7+Loop: 5′-[…]-3′ (SEQ ID NO: 216)). Deep sequencing is subsequently performed using a primer binding the flanking nucleotide sequence next to the target gene specific part of the shRNA (for Illumina/Solexa platforms the primer is mir30EcoR1Seq: 5′-TAGCCCCTTGAATTCCGA GGCAGTAGGCA-3′ (SEQ ID NO: 217)).
# (§3) The use of shRNA vectors that allow for monitoring of shRNA expression through fluorescent and other reporter genes (e.g. TRMPV) in combination with tet-on competent mouse models facilitates the isolation of pure shRNA expressing cell populations (e.g. by FACS, for TRMPV by sorting of Venus/dsRed double positive cells (FIG. 38). This selection of shRNA expressing cells prior to DNA isolation strongly reduces the background caused by cell populations with insufficient shRNA induction, which are predicted to contain genomic representation of the whole shRNA library without shRNA specific shifts in representation. The final readout is based on the comparison of shRNA representation (i.e. deep sequencing read numbers) before the assay (t0) or from cell populations left without doxycycline treatment (off dox) to those where shRNA were induced and cells subsequently sorted for shRNA expressing cells (on dox). shRNA with inhibitory effects are predicted to loose representation (show less reads) on dox compared to t0 and off dox.
# (§4) This pooled is RNAi screening strategy can be applied to rapidly survey inhibitory effects of large pools of shRNAs (˜1000 at a time) in different tet-on competent cancer models and normal control cells (FIG. 39). For example, a pool of 1166 shRNAs targeting 836 predominantly druggable genes associated with MLL fusion proteins in human leukemia and mouse models of MLL/AF9-induced AML (MLL cure library) was analyzed in pooled negative selection screening in tet-on competent MLL/AF9+Nras AML and immortalized murine embryonic fibroblasts (Mef) in parallel. To establish and validate this screening approach, the pool also contained 64 control shRNAs each of which have been previously analyzed for inhibitory effects in both AML cells and Mefs using the same experimental system (FIG. 40).
# (§5) After pooling of 1166 experimental and 64 control shRNAs the presence of shRNAs was verified by deep sequencing of shRNAs within the plasmid vector pool (FIG. 41). […]
row,Molecule,Fold depletion in AML [Fold]
1,B1,146.15
2,B2,123.76
3,B3,41.21
4,B4,40.11
5,B5,118.65
6,B6,25.66
7,B7,27.79
8,B8,63.15
9,B9,12.52
10,B10,145.53
11,B11,28.66
12,B12,57.84
13,B13,103.54
14,B14,36.54
15,B15,36.03
16,B16,12.98
17,B17,132.34
18,B18,12.58
19,B19,50.07
20,B20,31.42
21,B21,94.96
22,B22,242.96
23,B23,13.12
24,B24,60.72

# Tested on: immortalized murine embryonic fibroblasts (Mef)
# Assay: as above
# Assay type: cell-based
# Settings: deep sequencing reads, on dox compared to initial representation
# Source text: as §1, §2, §3, §4, §5
row,Molecule,Fold depletion in Mef [Fold]
1,B1,0.67
2,B2,0.27
3,B3,3.41
4,B4,0.30
5,B5,1.94
6,B6,2.12
7,B7,0.61
8,B8,0.77
9,B9,2.14
10,B10,1.04
11,B11,2.28
12,B12,2.31
13,B13,2.82
14,B14,0.84
15,B15,0.93
16,B16,0.69
17,B17,0.81
18,B18,2.21
19,B19,3.91
20,B20,1.26
21,B21,0.86
22,B22,0.60
23,B23,3.61
24,B24,0.27
